Measured values published in article PMC3316577.

Experiments:
[1] = target: CBFβ140-His (residues 1-140 of CBFβ with six histidine residues at the N-terminus) (human) (UniProt Q13951); assay: SEC
[2] = target: His-tagged CBFβ187 (mouse CBFβ, residues 1-187) (mouse) (UniProt Q08024); assay: SEC
[3] = target: CBFβ140-His (residues 1-140 of CBFβ with six histidine residues at the N-terminus) (human) (UniProt Q13951); assay: SEC; Vif-CBFβ complexes co-expressed and purified by nickel affinity, Superdex 200 10/300 GL, 20 mM Tris-HCl pH 8.0, 150 mM NaCl, 10% glycerol; peak fractions by SDS-PAGE and Coomassie staining

Sequence of UniProt Q13951 (Q13951 1-140): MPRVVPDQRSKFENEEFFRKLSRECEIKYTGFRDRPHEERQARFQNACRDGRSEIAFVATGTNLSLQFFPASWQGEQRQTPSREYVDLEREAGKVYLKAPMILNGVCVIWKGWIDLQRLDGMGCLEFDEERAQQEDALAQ
Sequence of UniProt Q08024 (Q08024 whole entry, the tested form may be a part): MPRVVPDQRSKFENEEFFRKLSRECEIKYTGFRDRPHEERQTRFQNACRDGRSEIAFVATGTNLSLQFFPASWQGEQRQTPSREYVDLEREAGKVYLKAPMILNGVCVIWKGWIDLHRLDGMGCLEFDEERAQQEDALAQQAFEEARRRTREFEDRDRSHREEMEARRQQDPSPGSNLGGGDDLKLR

“Elongin B / Elongin C (residues 17 to 112) (from UniProt Q15370 1-118; Q15369 17-112) (complex)” was tested. Which stoichiometry N [1] did it give?
Its stoichiometry N is 1.

What about the stoichiometry N [2] of the same substance?
The stoichiometry N was 1.

“truncated HIV-1 Vif176 (residues 1-176) (from UniProt P12504 1-176) (domain or fragment)” was tested. Which stoichiometry N [3] did it give?
Its stoichiometry N is 1.

With “truncated HIV-1 Vif140 (residues 1-140) (from UniProt P12504 1-140) (domain or fragment)” as the substance, how does the stoichiometry N [3] read?
Its stoichiometry N is 1.

How did the stoichiometry N [1] turn out when “full-length HIV-1 Vif (residues 1-192) (from UniProt P12504) (natural protein)” was run?
Its stoichiometry N is 1.

And the stoichiometry N [2]?
Its stoichiometry N is 1.

And the stoichiometry N [3]?
Its stoichiometry N is 1.
